Data published in patent US7087420B1, “Microbial β-glucuronidase genes, gene products and uses thereof” (Cambia, priority 1997, dated 2006).

B1: C, D, E: E. coli GUS mutein, Cys 197 to Ser, Cys 253 to Glu, Cys 262 to Ser (protein, UniProt P05804 1-603, looked up, variant C197S C253E C262S)
Beta-glucuronidase: MLRPVETPTREIKKLDGLWAFSLDRENCGIDQRWWESALQESRAIAVPGSFNDQFADADIRNYAGNVWYQREVFIPKGWAGQRIVLRFDAVTHYGKVWVNNQEVMEHQGGYTPFEADVTPYVIAGKSVRITVCVNNELNWQTIPPGMVITDENGKKKQSYFHDFFNYAGIHRSVMLYTTPNTWVDDITVVTHVAQDSNHASVDWQVVANGDVSVELRDADQQVVATGQGTSGTLQVVNPHLWQPGEGYLYELEVTAKSQTESDIYPLRVGIRSVAVKGEQFLINHKPFYFTGFGRHEDADLRGKGFDNVLMVHDHALMDWIGANSYRTSHYPYAEEMLDWADEHGIVVIDETAAVGFNLSLGIGFEAGNKPKELYSEEAVNGETQQAHLQAIKELIARDKNHPSVVMWSIANEPDTRPQGAREYFAPLAEATRKLDPTRPITCVNVMFCDAHTDTISDLFDVLCLNRYYGWYVQSGDLETAEKVLEKELLAWQEKLHQPIIITEYGVDTLAGLHSMYTDMWSEEYQCAWLDMYHRVFDRVSAVVGEQVWNFADFATSQGILRVGGNKKGIFTRDRKPKSAAFLLQKRWTGMNFGEKPQQGGKQ
B2: A, B, C, D, E: E. coli GUS mutein, Cys 28, 133, 197, 253, 262 changed to Asn, Ala, Ser, Glu, Ser (protein, UniProt P05804 1-603, looked up, variant C28N C133A C197S C253E C262S)
Beta-glucuronidase: MLRPVETPTREIKKLDGLWAFSLDRENNGIDQRWWESALQESRAIAVPGSFNDQFADADIRNYAGNVWYQREVFIPKGWAGQRIVLRFDAVTHYGKVWVNNQEVMEHQGGYTPFEADVTPYVIAGKSVRITVAVNNELNWQTIPPGMVITDENGKKKQSYFHDFFNYAGIHRSVMLYTTPNTWVDDITVVTHVAQDSNHASVDWQVVANGDVSVELRDADQQVVATGQGTSGTLQVVNPHLWQPGEGYLYELEVTAKSQTESDIYPLRVGIRSVAVKGEQFLINHKPFYFTGFGRHEDADLRGKGFDNVLMVHDHALMDWIGANSYRTSHYPYAEEMLDWADEHGIVVIDETAAVGFNLSLGIGFEAGNKPKELYSEEAVNGETQQAHLQAIKELIARDKNHPSVVMWSIANEPDTRPQGAREYFAPLAEATRKLDPTRPITCVNVMFCDAHTDTISDLFDVLCLNRYYGWYVQSGDLETAEKVLEKELLAWQEKLHQPIIITEYGVDTLAGLHSMYTDMWSEEYQCAWLDMYHRVFDRVSAVVGEQVWNFADFATSQGILRVGGNKKGIFTRDRKPKSAAFLLQKRWTGMNFGEKPQQGGKQ
B3: B, C, D, E: E. coli GUS mutein, Cys 133, 197, 253, 262 changed to Ala, Ser, Glu, Ser (protein, UniProt P05804 1-603, looked up, variant C133A C197S C253E C262S)
Beta-glucuronidase: MLRPVETPTREIKKLDGLWAFSLDRENCGIDQRWWESALQESRAIAVPGSFNDQFADADIRNYAGNVWYQREVFIPKGWAGQRIVLRFDAVTHYGKVWVNNQEVMEHQGGYTPFEADVTPYVIAGKSVRITVAVNNELNWQTIPPGMVITDENGKKKQSYFHDFFNYAGIHRSVMLYTTPNTWVDDITVVTHVAQDSNHASVDWQVVANGDVSVELRDADQQVVATGQGTSGTLQVVNPHLWQPGEGYLYELEVTAKSQTESDIYPLRVGIRSVAVKGEQFLINHKPFYFTGFGRHEDADLRGKGFDNVLMVHDHALMDWIGANSYRTSHYPYAEEMLDWADEHGIVVIDETAAVGFNLSLGIGFEAGNKPKELYSEEAVNGETQQAHLQAIKELIARDKNHPSVVMWSIANEPDTRPQGAREYFAPLAEATRKLDPTRPITCVNVMFCDAHTDTISDLFDVLCLNRYYGWYVQSGDLETAEKVLEKELLAWQEKLHQPIIITEYGVDTLAGLHSMYTDMWSEEYQCAWLDMYHRVFDRVSAVVGEQVWNFADFATSQGILRVGGNKKGIFTRDRKPKSAAFLLQKRWTGMNFGEKPQQGGKQ
B4: B: E. coli GUS mutein, Cys 133 changed to Ala (protein, UniProt P05804 1-603, looked up, variant C133A)
Beta-glucuronidase: MLRPVETPTREIKKLDGLWAFSLDRENCGIDQRWWESALQESRAIAVPGSFNDQFADADIRNYAGNVWYQREVFIPKGWAGQRIVLRFDAVTHYGKVWVNNQEVMEHQGGYTPFEADVTPYVIAGKSVRITVAVNNELNWQTIPPGMVITDENGKKKQSYFHDFFNYAGIHRSVMLYTTPNTWVDDITVVTHVAQDCNHASVDWQVVANGDVSVELRDADQQVVATGQGTSGTLQVVNPHLWQPGEGYLYELCVTAKSQTECDIYPLRVGIRSVAVKGEQFLINHKPFYFTGFGRHEDADLRGKGFDNVLMVHDHALMDWIGANSYRTSHYPYAEEMLDWADEHGIVVIDETAAVGFNLSLGIGFEAGNKPKELYSEEAVNGETQQAHLQAIKELIARDKNHPSVVMWSIANEPDTRPQGAREYFAPLAEATRKLDPTRPITCVNVMFCDAHTDTISDLFDVLCLNRYYGWYVQSGDLETAEKVLEKELLAWQEKLHQPIIITEYGVDTLAGLHSMYTDMWSEEYQCAWLDMYHRVFDRVSAVVGEQVWNFADFATSQGILRVGGNKKGIFTRDRKPKSAAFLLQKRWTGMNFGEKPQQGGKQ
B5: C: E. coli GUS mutein, Cys 197 changed to Ser (protein, UniProt P05804 1-603, looked up, variant C197S)
Beta-glucuronidase: MLRPVETPTREIKKLDGLWAFSLDRENCGIDQRWWESALQESRAIAVPGSFNDQFADADIRNYAGNVWYQREVFIPKGWAGQRIVLRFDAVTHYGKVWVNNQEVMEHQGGYTPFEADVTPYVIAGKSVRITVCVNNELNWQTIPPGMVITDENGKKKQSYFHDFFNYAGIHRSVMLYTTPNTWVDDITVVTHVAQDSNHASVDWQVVANGDVSVELRDADQQVVATGQGTSGTLQVVNPHLWQPGEGYLYELCVTAKSQTECDIYPLRVGIRSVAVKGEQFLINHKPFYFTGFGRHEDADLRGKGFDNVLMVHDHALMDWIGANSYRTSHYPYAEEMLDWADEHGIVVIDETAAVGFNLSLGIGFEAGNKPKELYSEEAVNGETQQAHLQAIKELIARDKNHPSVVMWSIANEPDTRPQGAREYFAPLAEATRKLDPTRPITCVNVMFCDAHTDTISDLFDVLCLNRYYGWYVQSGDLETAEKVLEKELLAWQEKLHQPIIITEYGVDTLAGLHSMYTDMWSEEYQCAWLDMYHRVFDRVSAVVGEQVWNFADFATSQGILRVGGNKKGIFTRDRKPKSAAFLLQKRWTGMNFGEKPQQGGKQ
B6: A: E. coli GUS mutein, Cys 28 changed to Asn (protein, UniProt P05804 1-603, looked up, variant C28N)
Beta-glucuronidase: MLRPVETPTREIKKLDGLWAFSLDRENNGIDQRWWESALQESRAIAVPGSFNDQFADADIRNYAGNVWYQREVFIPKGWAGQRIVLRFDAVTHYGKVWVNNQEVMEHQGGYTPFEADVTPYVIAGKSVRITVCVNNELNWQTIPPGMVITDENGKKKQSYFHDFFNYAGIHRSVMLYTTPNTWVDDITVVTHVAQDCNHASVDWQVVANGDVSVELRDADQQVVATGQGTSGTLQVVNPHLWQPGEGYLYELCVTAKSQTECDIYPLRVGIRSVAVKGEQFLINHKPFYFTGFGRHEDADLRGKGFDNVLMVHDHALMDWIGANSYRTSHYPYAEEMLDWADEHGIVVIDETAAVGFNLSLGIGFEAGNKPKELYSEEAVNGETQQAHLQAIKELIARDKNHPSVVMWSIANEPDTRPQGAREYFAPLAEATRKLDPTRPITCVNVMFCDAHTDTISDLFDVLCLNRYYGWYVQSGDLETAEKVLEKELLAWQEKLHQPIIITEYGVDTLAGLHSMYTDMWSEEYQCAWLDMYHRVFDRVSAVVGEQVWNFADFATSQGILRVGGNKKGIFTRDRKPKSAAFLLQKRWTGMNFGEKPQQGGKQ
B7: I: E. coli GUS mutein, Cys 527 changed to Lys (protein, UniProt P05804 1-603, looked up, variant C527K)
Beta-glucuronidase: MLRPVETPTREIKKLDGLWAFSLDRENCGIDQRWWESALQESRAIAVPGSFNDQFADADIRNYAGNVWYQREVFIPKGWAGQRIVLRFDAVTHYGKVWVNNQEVMEHQGGYTPFEADVTPYVIAGKSVRITVCVNNELNWQTIPPGMVITDENGKKKQSYFHDFFNYAGIHRSVMLYTTPNTWVDDITVVTHVAQDCNHASVDWQVVANGDVSVELRDADQQVVATGQGTSGTLQVVNPHLWQPGEGYLYELCVTAKSQTECDIYPLRVGIRSVAVKGEQFLINHKPFYFTGFGRHEDADLRGKGFDNVLMVHDHALMDWIGANSYRTSHYPYAEEMLDWADEHGIVVIDETAAVGFNLSLGIGFEAGNKPKELYSEEAVNGETQQAHLQAIKELIARDKNHPSVVMWSIANEPDTRPQGAREYFAPLAEATRKLDPTRPITCVNVMFCDAHTDTISDLFDVLCLNRYYGWYVQSGDLETAEKVLEKELLAWQEKLHQPIIITEYGVDTLAGLHSMYTDMWSEEYQKAWLDMYHRVFDRVSAVVGEQVWNFADFATSQGILRVGGNKKGIFTRDRKPKSAAFLLQKRWTGMNFGEKPQQGGKQ
B8: A, B, C, D, E, I: E. coli GUS mutein, Cys 28, 133, 197, 253, 262, 527 changed to Asn, Ala, Ser, Glu, Ser, Lys (protein, UniProt P05804 1-603, looked up, variant C28N C133A C197S C253E C262S C527K)
Beta-glucuronidase: MLRPVETPTREIKKLDGLWAFSLDRENNGIDQRWWESALQESRAIAVPGSFNDQFADADIRNYAGNVWYQREVFIPKGWAGQRIVLRFDAVTHYGKVWVNNQEVMEHQGGYTPFEADVTPYVIAGKSVRITVAVNNELNWQTIPPGMVITDENGKKKQSYFHDFFNYAGIHRSVMLYTTPNTWVDDITVVTHVAQDSNHASVDWQVVANGDVSVELRDADQQVVATGQGTSGTLQVVNPHLWQPGEGYLYELEVTAKSQTESDIYPLRVGIRSVAVKGEQFLINHKPFYFTGFGRHEDADLRGKGFDNVLMVHDHALMDWIGANSYRTSHYPYAEEMLDWADEHGIVVIDETAAVGFNLSLGIGFEAGNKPKELYSEEAVNGETQQAHLQAIKELIARDKNHPSVVMWSIANEPDTRPQGAREYFAPLAEATRKLDPTRPITCVNVMFCDAHTDTISDLFDVLCLNRYYGWYVQSGDLETAEKVLEKELLAWQEKLHQPIIITEYGVDTLAGLHSMYTDMWSEEYQKAWLDMYHRVFDRVSAVVGEQVWNFADFATSQGILRVGGNKKGIFTRDRKPKSAAFLLQKRWTGMNFGEKPQQGGKQ

system: KW1; assay: X-GlcA staining of low-cysteine E. coli GUS muteins in KW1; type: cell-based; conditions: pBS backbone in KW1, staining with X-GlcA
Excerpt: Single and multiple Cys muteins are constructed by site-directed mutagenesis techniques. Eight of the nine cysteine residues in E. coli GUS are changed to the corresponding residue found in human GUS based on alignment of the two protein sequences. One of the E. coli GUS cysteine residues, amino acid 463, aligns with a cysteine residue in human GUS and was not altered. The corresponding amino acids between E. coli GUS and human GUS are shown below.
The mutein GUS genes are cloned into a pBS backbone. The mutations are confirmed by diagnostic restriction site changes and by DNA sequence analysis. Recombinant vectors are transfected into KW1 and GUS activity assayed by staining with X-GlcA (5-bromo-4-chloro-3-indolyl-β-D-glucuronide).

Q: B1 was tested. Which GUS activity did it give?
A: Yes

Q: How did the GUS activity turn out when B2 was run?
A: Yes

Q: With B3 as the molecule, how does the GUS activity read?
A: Yes

Q: With B4 as the molecule, how does the GUS activity read?
A: Yes

Q: For B5, which GUS activity is on record?
A: Yes

Q: For B6, which GUS activity is on record?
A: Yes

Q: For B7, which GUS activity is on record?
A: No

Q: For B8, which GUS activity is on record?
A: No
